± gives the uncertainty stated by the source.
Assay: self-splicing fitness, log relative to wild type (ln ratio); higher = more splicing; Tetrahymena group I intron in knt gene, E. coli kanamycin selection, DiMSum; sequences stand for … in CUCUCU…GGAGGGAAAAGUUAUCAGGCAUGCACCUGGUAGCUAGUCUUUAAACCAAUAGAUUGCAUCGGUUUAAAAGGCAAGACCGUCAAAUUGCGGGAAAGGGGUCAACAGCCGUUCAGUACCAAGUCUCAGGGGAAACUUUGAGAUGGCCUUGCAAAGGGUAUGGUAAUAAGCUGACGGACAUGGUCCUAACCACGCAGCCAAGUCCUAAGUCAACAGAUCUUCUGUUGAUAUGGAUGCAGUUCACAGACUAAAUGUCGGUCGGGGAAGAUGUAUUCUUCUCAUAAGAUAUAGUCGGACCUCUCCUUAAUGGGAGCUAGCGGAUGAAGUGAUGCAACACUGGAGCCGCUGGGAACUAAUUUGUAUGCGAAAGUAUAUUGAUUAGUUUUGGAGUACUCGUGGUCG
In short: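 DiMSum derived fitness as the error-weighted combination of fold changes across replicates, kanamycin versus no kanamycin, normalised to wild type. E. coli BL21(DE3) held the library, which randomised all eight P1ex-region intron nucleotides within the knt kanamycin-resistance gene on pET-22b(+). Six replicate transformations grew overnight at 37°C or 30°C on LB agar with or without 25 μg/mL kanamycin, also containing 100 μg/mL carbenicillin, 50 μM IPTG and 0.2% rhamnose, and pooled colonies were amplicon-sequenced on an Illumina HiSeq 2500.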

Row | Sequence | self-splicing fitness (ln) (30 °C) | self-splicing fitness (ln) (37 °C)
1 | AUAAAGCAAUAUUACGCUCU | 0.0815 ± 0.089 | 0.0503 ± 0.1
2 | AUAAAGCAAUAUUACGGACC | -0.681 ± 0.16 | -0.941 ± 0.24
3 | AUAAAGCAAUAUUACGGAGG | -3.18 ± 0.18 | -1.67 ± 0.24
4 | AUAAAGCAAUAUUACGGCAU | 0.53 ± 0.098 | -0.0243 ± 0.11
5 | AUAAAGCAAUAUUACGGCCC | 0.659 ± 0.39 | 0.503 ± 0.43
6 | AUAAAGCAAUAUUACGGCCG | -0.128 ± 0.1 | 0.3 ± 0.16
7 | AUAAAGCAAUAUUACGGCUU | -0.708 ± 0.1 | -0.569 ± 0.12
8 | AUAAAGCAAUAUUACGGGCA | -0.434 ± 0.077 | -0.368 ± 0.08
9 | AUAAAGCAAUAUUACGGGGG | -2.77 ± 0.28 | -2.66 ± 0.28
10 | AUAAAGCAAUAUUACGGUAG | -2.82 ± 0.1 | -1.74 ± 0.12
11 | AUAAAGCAAUAUUACGGUGA | -0.436 ± 0.09 | -0.422 ± 0.11
12 | AUAAAGCAAUAUUACGUCGU | -0.554 ± 0.046 | 0.314 ± 0.064
13 | AUAAAGCAAUAUUACGUGAC | -2.94 ± 0.19 | -1.57 ± 0.18
14 | AUAAAGCAAUAUUACGUGAG | -1.27 ± 0.076 | -1.07 ± 0.12
15 | AUAAAGCAAUAUUACGUGCU | -1.29 ± 0.08 | -0.736 ± 0.11
16 | AUAAAGCAAUAUUACGUUAA | -1.62 ± 0.087 | -1.16 ± 0.12
17 | AUACAGCAAUAUUACGAACA | -1.78 ± 0.17 | 0.157 ± 0.14
18 | AUACAGCAAUAUUACGAAUA | -2.51 ± 0.12 | -0.987 ± 0.11
19 | AUACAGCAAUAUUACGACAU | 0.131 ± 0.011 | 0.288 ± 0.032
20 | AUACAGCAAUAUUACGACGC | -0.948 ± 0.13 | 0.227 ± 0.16
21 | AUACAGCAAUAUUACGAGAU | -3.35 ± 0.14 | -1.18 ± 0.11
22 | AUACAGCAAUAUUACGAUAG | -2.57 ± 0.18 | -3 ± 0.34
23 | AUACAGCAAUAUUACGCAGC | -4.34 ± 0.45 | -1.87 ± 0.19
24 | AUACAGCAAUAUUACGCAUC | -3.69 ± 0.16 | -2.8 ± 0.21

Row | Sequence | self-splicing fitness (ln) (30 °C) | self-splicing fitness (ln) (37 °C)
25 | AUACAGCAAUAUUACGCCGC | -3.8 ± 0.27 | -2.19 ± 0.2
26 | AUACAGCAAUAUUACGCCUA | -1.1 ± 0.11 | -0.472 ± 0.12
27 | AUACAGCAAUAUUACGCUGU | -4.13 ± 0.36 | -3.51 ± 0.33
28 | AUACAGCAAUAUUACGGAAG | -3.36 ± 0.14 | -2.21 ± 0.14
29 | AUACAGCAAUAUUACGGAAU | -2.34 ± 0.1 | -1.54 ± 0.13
30 | AUACAGCAAUAUUACGGAGU | -1.72 ± 0.085 | -1.72 ± 0.11
31 | AUACAGCAAUAUUACGGAUG | -2.7 ± 0.2 | -2.05 ± 0.14
32 | AUACAGCAAUAUUACGGCAA | -0.488 ± 0.076 | 0.0743 ± 0.078
33 | AUACAGCAAUAUUACGGCCC | -1.15 ± 0.19 | -0.184 ± 0.28
34 | AUACAGCAAUAUUACGGCGA | -1.08 ± 0.096 | -0.781 ± 0.11
35 | AUACAGCAAUAUUACGGGAC | -2.14 ± 0.15 | -1.74 ± 0.17
36 | AUACAGCAAUAUUACGGGGA | -2.98 ± 0.21 | -2.3 ± 0.14
37 | AUACAGCAAUAUUACGGGGC | -2.65 ± 0.12 | -3.57 ± 0.2
38 | AUACAGCAAUAUUACGUAGA | -2.11 ± 0.085 | -0.327 ± 0.076
39 | AUACAGCAAUAUUACGUCCC | -0.874 ± 0.14 | -0.261 ± 0.18
40 | AUACAGCAAUAUUACGUGAC | -1.57 ± 0.095 | -0.945 ± 0.13
41 | AUACAGCAAUAUUACGUGAG | -1.51 ± 0.06 | -0.677 ± 0.097
42 | AUACAGCAAUAUUACGUGCA | -1.01 ± 0.083 | -0.648 ± 0.085
43 | AUACAGCAAUAUUACGUGGU | -2.71 ± 0.13 | -2.27 ± 0.14
44 | AUACAGCAAUAUUACGUGUA | -2.3 ± 0.093 | -1.32 ± 0.095
45 | AUACAGCAAUAUUACGUUAA | -3.26 ± 0.18 | -1.41 ± 0.11
46 | AUACAGCAAUAUUACGUUCC | -2.46 ± 0.15 | -0.684 ± 0.14
47 | AUACAGCAAUAUUACGUUGA | -2.53 ± 0.095 | -1.44 ± 0.088
48 | AUAGAGCAAUAUUACGACAC | -0.57 ± 0.15 | -0.0339 ± 0.2

Row | Sequence | self-splicing fitness (ln) (30 °C) | self-splicing fitness (ln) (37 °C)
49 | AUAGAGCAAUAUUACGACCC | -2.56 ± 0.47 | -1.4 ± 0.42
50 | AUAGAGCAAUAUUACGACUC | -0.707 ± 0.11 | -0.0412 ± 0.15
51 | AUAGAGCAAUAUUACGAGUG | -3.25 ± 0.21 | -0.0938 ± 0.18
52 | AUAGAGCAAUAUUACGCCUU | -1.66 ± 0.12 | 0.354 ± 0.16
53 | AUAGAGCAAUAUUACGCUAG | -1.01 ± 0.15 | -0.475 ± 0.15
54 | AUAGAGCAAUAUUACGCUCC | -0.896 ± 0.37 | -1.91 ± 0.41
55 | AUAGAGCAAUAUUACGGACA | -2.38 ± 0.27 | -0.896 ± 0.33
56 | AUAGAGCAAUAUUACGGAGG | -3.24 ± 0.22 | -1.8 ± 0.23
57 | AUAGAGCAAUAUUACGGAUA | -2.83 ± 0.31 | -1.8 ± 0.39
58 | AUAGAGCAAUAUUACGGAUG | -1.43 ± 0.12 | -2.91 ± 0.31
59 | AUAGAGCAAUAUUACGGCUA | 0.361 ± 0.077 | 0.0589 ± 0.098
60 | AUAGAGCAAUAUUACGGGCA | -2.19 ± 0.097 | -1.28 ± 0.11
61 | AUAGAGCAAUAUUACGGGCU | -4.11 ± 0.27 | -2.51 ± 0.29
62 | AUAGAGCAAUAUUACGGGGG | -3.2 ± 0.27 | -2.72 ± 0.4
63 | AUAGAGCAAUAUUACGGUAU | -0.341 ± 0.075 | -0.0895 ± 0.11
64 | AUAGAGCAAUAUUACGGUGU | -1.24 ± 0.1 | -0.567 ± 0.15
65 | AUAGAGCAAUAUUACGGUUC | -3.21 ± 0.24 | -1.29 ± 0.22
66 | AUAGAGCAAUAUUACGUAGU | -1.69 ± 0.12 | -0.153 ± 0.15
67 | AUAGAGCAAUAUUACGUAUG | -3.22 ± 0.17 | -0.602 ± 0.14
68 | AUAGAGCAAUAUUACGUGCU | -1.24 ± 0.25 | –
69 | AUAGAGCAAUAUUACGUGGA | -3.98 ± 0.27 | -3.39 ± 0.29
70 | AUAGAGCAAUAUUACGUGGC | -3.18 ± 0.4 | -2.7 ± 0.26
71 | AUAGAGCAAUAUUACGUGUG | -1.61 ± 0.1 | -2.39 ± 0.2
72 | AUAGAGCAAUAUUACGUUCA | 0.258 ± 0.11 | -0.633 ± 0.12

Row | Sequence | self-splicing fitness (ln) (30 °C) | self-splicing fitness (ln) (37 °C)
73 | AUAGAGCAAUAUUACGUUUC | -3.32 ± 0.22 | -1.46 ± 0.24
74 | AUAUAGCAAUAUUACGACCU | -0.348 ± 0.14 | 0.267 ± 0.15
75 | AUAUAGCAAUAUUACGACGU | 0.51 ± 0.13 | 0.433 ± 0.17
76 | AUAUAGCAAUAUUACGAGAC | -3.02 ± 0.39 | -1.61 ± 0.49
77 | AUAUAGCAAUAUUACGAGUU | -3.19 ± 0.18 | -1.46 ± 0.15
78 | AUAUAGCAAUAUUACGAUGG | -3.07 ± 0.31 | -0.944 ± 0.26
79 | AUAUAGCAAUAUUACGCAGA | -2.82 ± 0.31 | -1.42 ± 0.21
80 | AUAUAGCAAUAUUACGCCCU | -0.155 ± 0.15 | 0.32 ± 0.18
81 | AUAUAGCAAUAUUACGCCUU | -1.01 ± 0.12 | -0.431 ± 0.12
82 | AUAUAGCAAUAUUACGCGUA | -1.11 ± 0.19 | -0.256 ± 0.13
83 | AUAUAGCAAUAUUACGCGUC | -3.3 ± 0.26 | -2.26 ± 0.28
84 | AUAUAGCAAUAUUACGCUCA | -0.563 ± 0.18 | 0.319 ± 0.22
85 | AUAUAGCAAUAUUACGCUCG | -0.992 ± 0.12 | 0.0571 ± 0.18
86 | AUAUAGCAAUAUUACGCUUA | -1.53 ± 0.16 | -0.0426 ± 0.15
87 | AUAUAGCAAUAUUACGGACU | -1.04 ± 0.11 | -0.14 ± 0.16
88 | AUAUAGCAAUAUUACGGCAU | -0.195 ± 0.089 | 0.155 ± 0.12
89 | AUAUAGCAAUAUUACGGGAU | -2.27 ± 0.16 | -0.966 ± 0.16
90 | AUAUAGCAAUAUUACGGGUC | -4.55 ± 0.46 | -2.17 ± 0.25
91 | AUAUAGCAAUAUUACGGUAA | -1.94 ± 0.15 | -0.869 ± 0.13
92 | AUAUAGCAAUAUUACGGUGC | -2.77 ± 0.38 | -1.94 ± 0.27
93 | AUAUAGCAAUAUUACGGUUU | -1.31 ± 0.091 | -0.854 ± 0.11
94 | AUAUAGCAAUAUUACGUAUU | -2.94 ± 0.22 | -1.63 ± 0.21
95 | AUAUAGCAAUAUUACGUGGA | -3.57 ± 0.27 | -3.04 ± 0.26
